Source: paper PMC5759264

Molecular target: Recombinant human His-tagged CEACAM5 extracellular domain (human) (UniProt P06731)
Test: BLI

UniProt P06731, sequence (P06731 35-702): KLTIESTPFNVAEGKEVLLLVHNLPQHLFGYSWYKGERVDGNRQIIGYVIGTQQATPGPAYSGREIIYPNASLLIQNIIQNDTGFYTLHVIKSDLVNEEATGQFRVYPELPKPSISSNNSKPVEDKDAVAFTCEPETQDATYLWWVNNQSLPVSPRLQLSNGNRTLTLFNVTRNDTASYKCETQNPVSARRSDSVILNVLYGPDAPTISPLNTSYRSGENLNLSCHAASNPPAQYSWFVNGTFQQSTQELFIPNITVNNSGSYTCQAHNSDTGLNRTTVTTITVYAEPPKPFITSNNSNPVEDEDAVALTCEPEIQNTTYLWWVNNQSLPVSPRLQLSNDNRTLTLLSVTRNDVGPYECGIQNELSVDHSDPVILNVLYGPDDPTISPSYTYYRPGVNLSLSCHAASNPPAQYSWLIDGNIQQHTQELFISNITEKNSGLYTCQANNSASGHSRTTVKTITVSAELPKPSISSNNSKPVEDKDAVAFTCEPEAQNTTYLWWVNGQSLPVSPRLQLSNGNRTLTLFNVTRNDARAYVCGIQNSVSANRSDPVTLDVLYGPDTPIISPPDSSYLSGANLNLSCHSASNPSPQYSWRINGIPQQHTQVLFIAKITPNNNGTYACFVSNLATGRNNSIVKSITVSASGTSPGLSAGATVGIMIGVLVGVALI

Kd | Substance
2.5 nM | common light chain IgG variant 4F02 (from UniProt P01624)
0.6 nM | common light chain IgG variant 4G07 (from UniProt P01624)
